Measurements: patent US5652133A, “Cloning and expression of the human macrophage inflammatory protein-1.alpha . α) /rantes receptor” (The United States of America as represented by the …, priority 1993, dated 1997)

T1: MIP-1α/RANTES receptor (Homo sapiens, UniProt P32246)
T1 construct: I.D. No. 1; expressed in transfected cells; host or cells: Xenopus laevis oocytes microinjected with receptor cRNA
T1 sequence (P32246 1-355): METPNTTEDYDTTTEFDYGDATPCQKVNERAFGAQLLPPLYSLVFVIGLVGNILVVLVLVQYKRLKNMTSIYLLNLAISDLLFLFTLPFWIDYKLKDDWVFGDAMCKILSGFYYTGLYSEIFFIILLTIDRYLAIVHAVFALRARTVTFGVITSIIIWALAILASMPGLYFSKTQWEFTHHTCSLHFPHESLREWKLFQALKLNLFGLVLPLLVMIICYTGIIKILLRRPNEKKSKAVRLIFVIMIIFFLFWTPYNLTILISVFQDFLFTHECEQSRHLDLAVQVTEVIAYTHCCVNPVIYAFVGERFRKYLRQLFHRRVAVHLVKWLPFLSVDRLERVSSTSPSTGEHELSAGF

B1: NAP-2: recombinant human neutrophil activating peptide-2 (Bachem Bioscience) (protein, UniProt P02775 59-128, looked up)
Neutrophil-activating peptide …: AELRCMCIKTTSGIHPKNIQSLEVIGKGTHCNQVEVIATLKDGRKICLDPDAPRIKKIVQKKLAGDESAD
modifications: Neutrophil-activating peptide 2
B2: C5a: C5a, ligand tested in the oocyte calcium efflux screen (protein, UniProt P01031 678-751, looked up)
C5a anaphylatoxin: TLQKKIEEIAAKYKHSVVKKCCYDGACVNNDETCEQRAARISLGPRCIKAFTECCVVASQLRANISHKDMQLGR
modifications: C5a anaphylatoxin
notes: C5a, ligand tested in the oocyte calcium efflux screen
B3: MIP-1β: recombinant human MIP-1β, diluted supernatant of Sf9 insect cells (clone pAT744) (protein, UniProt P13236 24-92, looked up)
C-C motif chemokine 4: APMGSDPPTACCFSYTARKLPRNFVVDYYETSSLCSQPAVVFQTKRSKQVCADPSESWVQEYVYDLELN

Experiments:
[1] = target: T1, MIP-1α/RANTES receptor; test: Calcium efflux assay in Xenopus oocytes injected with MIP-1α/RANTES receptor cRNA; format: cell-based; details: for responsiveness of cRNA-injected oocytes to ligand (calcium efflux): oocytes injected with 10 ng receptor cRNA, IL-8, GRO-α, NAP-2 at 500 nM, MIP-1α/MIP-1β Sf9 supernatant 1:5, panel C ligands at 250 nM
Description: (§1) The materials and methods used for the calcium efflux assay were as described in Murphy, et al., J. Immunol. 145:2227-2234 (1990). Adult female laboratory bred Xenopus laevis (Nasco, Fort Atkinson, Wis.) were maintained at 19° C. to 22° C. in a light-dark cycle of 12 h per phase. The frogs were anesthetized and ovarian lobes were resected and defolliculated in OR2 solution (82.5 mM NaCl, 1 mM MgCl2, 2.4 mM KCl, 5 mM HEPES, pH 7.5) containing 2 mg/ml collagenase for 2 h on a rotary shaker. Stage V-VI oocytes were transferred to ND96 solution (96 mM NaCl, 2 mM KCl, 1.8 mM CaCl2, 1 mM MgCl2, 2.4 mM sodium pyruvate, penicillin 100 U/ml, streptomycin 100 μg/ml, 5 mM HEPES, pH 7.4 to 7.5).
(§2) After 1-2 days, oocytes were microinjected with RNA samples in a total volume of 50 nl per oocyte and were then incubated in ND96 solution at 20° C. to 23° C. for 3 to 5 days. Oocytes were then incubated in 500 μl of OR2 medium containing ^45 Ca^2+ [50 μCi/ml (ICN Biomedicals, Costa Mesa, Calif.)] for 3 hours at 20° C. After ten washes with ND96 medium, individual oocytes were stimulated with ligand in wells of a 96-well tissue culture plate containing 100 μl of ND96 medium. Three 100 μl samples of the incubation medium were collected and analyzed by liquid scintillation counting: a) the final 100 μl wash (20 min) before application of ligand; b) fluid containing the stimulus, removed after a 20 min incubation with the oocyte; and c) the oocyte solubilized in SDS (1%) in medium 20 min after stimulation. Data are presented as the mean±standard error of the mean (SEM) of the percent of loaded ^45 Ca^2+ that was released by individual oocytes in response to the stimulus, or [(b-a).div.(b+c)]×100.
Ligands were all human recombinant material obtained from the following sources: MIP-1α (R and D Systems, Minneapolis, Minn.); IL-8, RANTES, and MCAF (Genzyme, Cambridge, Mass.); NAP-2 (Bachem Bioscience, Philadelphia, Pa.); GRO-α (a gift from M. P. Beckmann, S. Lyman and D. Cerretti). MIP-1α and MIP-1β used in a ligand screen was a gift of U. Siebenlist (NIAID, Bethesda, Md.) and were used as a diluted supernatant of Sf9 insect cells expressing immunoreactive recombinant human MIP-1α (from clone pAT464) or MIP-1β (from clone pAT744) that was prepared as described in Zipfel et al. J. Immunol. 142:1582-1590 (1989) and Zipfel et al. Lymph. Cyto. Res. 11:141-148 (1992). All proteins were diluted from aqueous stock solutions or culture supernatants into ND96 oocyte media (96 mM NaCl, […], pH 7.45) containing 0.1% bovine serum albumin.
Five days after injection with 10 ng of either MIP-1α/RANTES receptor cRNA (closed bars) or IL-8 receptor B cRNA (open bars), oocytes were stimulated with recombinant human IL-8, GRO-α or NAP-2 at 500 nM, or a 1:5 dilution of an Sf9 supernatant containing recombinant human MIP-1α or MIP-1β. […] Oocytes injected with 50 ng HL-60 RNA (closed circle) or 10 ng of MIP-1α/RANTES receptor cRNA (open circle) were stimulated with the indicated concentration of recombinant human MIP-1α. […] Oocytes were injected with either HL-60 RNA (open bars) or MIP-1α/RANTES receptor cRNA (closed bars) and stimulated with the indicated ligand at 250 nM. In panels A-C, the data derive from 5-8 replicate determinations per point.

[2] = system: IL-8 receptor B; test: Calcium efflux assay in Xenopus oocytes injected with IL-8 receptor B cRNA; format: cell-based, human; details: oocytes injected with 10 ng IL-8 receptor B cRNA; 1:5 dilution of Sf9 supernatant
Description: as §1
as §2, with “After ten washes with ND96 medium, individual oocytes were stimulated with ligand in wells of a 96-well tissue culture plate containing 100 μl of ND96 medium.” left out, “Data are presented as the mean±standard error of the mean (SEM) of the percent of loaded ^45 Ca^2+ that was released by individual oocytes in response to the stimulus, or [(b-a).div.(b+c)]×100.” left out

[3] = target: T1, MIP-1α/RANTES receptor; test: Radioligand binding of 125I-MIP-1α to oocytes injected with MIP-1α/RANTES receptor cRNA
Description: Carrier free recombinant human MIP-1α 10 μg (Genzyme, Cambridge, Mass.) was labeled using 5 mCi Na^125 I (Amersham, Arlington Heights, Ill.) in 100 μl 0.2M sodium phosphate, pH 7.2 and 50 μl reconstituted Enzymobeads (BioRad, Richmond, AC). The reaction was started using 25 μl 1% β-D-glucose and allowed to continue for 20 minutes. Labeled sample was separated from the free iodine using a NAP-5 column (Pharmacia LKB, Piscataway, N.J.) which had been previously rinsed with 1% bovine serum albumin in 0.2M sodium phosphate, pH 7.2. Labeled material was collected from the column and analyzed on a 14% acrylamide gel. Single oocytes were incubated with ^125 I-MIP-1α for 30 min on ice in 10 μl of binding buffer (Hanks' balanced salt solution with 25 mM HEPES, 1% bovine serum albumin, pH 7.4). Unbound ligand was removed by centrifugation of the oocyte through 300 μl of F50 silicone fluid (General Electric, Waterford, N.Y.). The tubes were quickly frozen and gamma emissions from the amputated tips were counted.
Binding of ^125 I-labeled MIP-1α to oocytes injected with MIP-1α/RANTES receptor cRNA. (A) Total (closed circles) and non-specific binding (open circles) was determined by incubating oocytes injected with MIP-1α/RANTES receptor cRNA with the indicated concentration of ^125 I-labeled MIP-1α in the absence or presence of a 100 fold molar excess of unlabeled MIP-1α, respectively. […]

[4] = system: IL-8 receptor B; test: Radioligand binding of 125I-MIP-1α to oocytes expressing IL-8 receptor B; set-up: species or system human; details: single oocytes, 30 min on ice

Molecule | responsiveness of cRNA-injected oocytes to ligand (calcium efflux) [1] | other results
Nc1ncnc2c1ncn2[C@@H]1O[C@H](COP(=O)(O)OP(=O)(O)OP(=O)(O)O)[C@@H](O)[C@H]1O [ATP, reference compound] | inactive | –
CCCCC[C@H](O)/C=C/[C@H]1[C@H](O)CC(=O)[C@@H]1C/C=C\CCCC(=O)O [Prostaglandin E2, reference compound] | inactive | –
O=c1ccn([C@@H]2O[C@H](COP(=O)(O)OP(=O)(O)OP(=O)(O)O)[C@@H](O)[C@H]2O)c(=O)[nH]1 [UTP, reference compound] | inactive | –
CSCC[C@H](NC=O)C(=O)N[C@@H](CC(C)C)C(=O)N[C@@H](Cc1ccccc1)C(=O)O [f-met-leu-phe, reference compound] | inactive | –
NCCc1c[nH]cn1 [histamine, reference compound] | inactive | –
CCCCCCCCCCCCCCCCOCC(COP(=O)([O-])OCC[N+](C)(C)C)OC(C)=O (stereo not shown) [platelet activating factor, reference compound] | inactive | –
GROα: recombinant human GROα/melanoma growth stimulatory activity, α chemokine | not | –
IL-8: recombinant human interleukin-8, α chemokine (Genzyme) | not | –
MCP-1: human recombinant Monocyte Chemoattractant Protein-1 (MCAF, Genzyme) | not | –
MIP-1α: recombinant human Macrophage Inflammatory Protein-1α, β chemokine (R and D Systems; or Sf9 supernatant) | acquired responsiveness | concentration at which the first phase of the oocyte response appeared to saturate ([1]; calcium efflux, first phase): ~100 NM; concentration at which the second phase of the oocyte response did not reach a plateau ([1]; calcium efflux, second phase): > 5 µM; activation of IL-8 receptor B (calcium efflux) [2]: Neither MIPα nor MIP-1β activated
RANTES: recombinant human β chemokine, Regulated on Activation, Normal T Expressed and Secreted (Genzyme) | acquired responsiveness | EC50 ([1]; calcium efflux, oocytes injected with receptor cRNA): ~50 nM
^125 I-MIP-1α: carrier free recombinant human MIP-1α (Genzyme) labeled with Na125I | – | threshold for detection of specific binding [3]: the same as that required for stimulation of calcium efflux; specific binding to oocytes expressing IL-8 receptor B [4]: did not bind specifically; specific binding to oocytes expressing IL-8 receptor B ([4]; listed as 125 I-labeled MIP-1α): undetectable
B1 | not | –
B2 | inactive | –
B3 | not | activation of IL-8 receptor B (calcium efflux) [2]: Neither MIPα nor MIP-1β activated
